From patent US20160199438A1 (Eli Lilly, published 2016)

T1: human GLP-2 receptor (human, UniProt O95838 1-553)
T1 sequence (looked up): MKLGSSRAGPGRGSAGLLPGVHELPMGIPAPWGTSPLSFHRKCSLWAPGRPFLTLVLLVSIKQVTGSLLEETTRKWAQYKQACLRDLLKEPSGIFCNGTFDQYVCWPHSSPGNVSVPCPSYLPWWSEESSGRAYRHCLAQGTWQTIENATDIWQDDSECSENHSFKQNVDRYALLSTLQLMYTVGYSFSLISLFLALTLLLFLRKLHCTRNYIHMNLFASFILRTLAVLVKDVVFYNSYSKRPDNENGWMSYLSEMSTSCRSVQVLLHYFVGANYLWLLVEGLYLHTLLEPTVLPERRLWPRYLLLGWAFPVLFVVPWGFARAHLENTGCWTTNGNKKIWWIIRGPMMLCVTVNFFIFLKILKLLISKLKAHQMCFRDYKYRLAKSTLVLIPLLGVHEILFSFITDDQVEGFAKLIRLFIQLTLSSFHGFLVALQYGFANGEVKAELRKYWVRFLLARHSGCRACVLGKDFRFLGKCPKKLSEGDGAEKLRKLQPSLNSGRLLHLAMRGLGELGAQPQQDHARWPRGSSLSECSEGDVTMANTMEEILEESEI

T2: human glucose-dependent insulinotropic polypeptide receptor (human, UniProt P48546 22-466)
T2 sequence (looked up): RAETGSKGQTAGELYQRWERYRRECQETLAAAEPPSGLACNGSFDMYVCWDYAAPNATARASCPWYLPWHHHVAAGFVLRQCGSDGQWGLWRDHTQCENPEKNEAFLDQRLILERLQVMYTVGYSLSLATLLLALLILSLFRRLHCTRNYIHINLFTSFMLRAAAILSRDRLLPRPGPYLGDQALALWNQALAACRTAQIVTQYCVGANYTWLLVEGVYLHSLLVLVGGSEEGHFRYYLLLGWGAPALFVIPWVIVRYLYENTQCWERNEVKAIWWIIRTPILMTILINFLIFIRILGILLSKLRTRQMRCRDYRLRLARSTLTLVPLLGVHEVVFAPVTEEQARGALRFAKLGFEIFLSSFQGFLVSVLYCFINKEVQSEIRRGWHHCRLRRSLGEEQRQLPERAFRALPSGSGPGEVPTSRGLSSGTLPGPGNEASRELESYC

T3: GIP receptor of GLUTag cells (murine (the cell line is stated to be …, UniProt Q0P543 19-460))
T3 sequence (looked up): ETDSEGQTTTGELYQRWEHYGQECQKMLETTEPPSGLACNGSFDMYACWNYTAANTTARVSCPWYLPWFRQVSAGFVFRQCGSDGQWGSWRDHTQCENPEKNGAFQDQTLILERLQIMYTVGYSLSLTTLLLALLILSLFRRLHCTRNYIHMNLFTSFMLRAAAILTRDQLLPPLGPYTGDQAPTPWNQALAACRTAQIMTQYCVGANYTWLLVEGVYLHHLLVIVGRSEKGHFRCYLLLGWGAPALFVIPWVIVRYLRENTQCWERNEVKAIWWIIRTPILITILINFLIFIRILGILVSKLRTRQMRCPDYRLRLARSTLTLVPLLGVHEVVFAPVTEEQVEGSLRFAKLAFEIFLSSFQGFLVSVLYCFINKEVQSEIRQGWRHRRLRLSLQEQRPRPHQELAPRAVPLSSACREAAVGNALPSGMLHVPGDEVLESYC


What was measured:
[1] = target: human glucose-dependent insulinotropic polypeptide receptor (human) (UniProt P48546); experiment: cell-based or functional assay
human GLP-2 receptor = target: T1, human GLP-2 receptor; experiment: cell-based or functional assay
[2] = target: T2, human glucose-dependent insulinotropic …; experiment: cell-based or functional assay
[3] = target: T4, human glucagon-like peptide 1 receptor (human, UniProt P43220 24-463); experiment: cell-based or functional assay
[4] = target: T3, GIP receptor of GLUTag cells; experiment: cell-based or functional assay
[5] = target: T2, human glucose-dependent insulinotropic …; experiment: competition of [125I]GIP, SPA, hGIP-R CHO-S membranes; Ki by Cheng-Prusoff
Protocol: The compounds are serially diluted into binding buffer. Next, 10 μL diluted compound or 100% DMSO is transferred into Corning® 3632 clear bottom assay plates containing 40 μL assay binding buffer or cold GIP (NSB at 0.1 μM final). Then, 90 μL membranes (3 μg/well), 50 μL [|¹²⁵|] GIP (Perkin Elmer Life and Analytical Sciences at 0.15 nM final in reaction), and 50 μL of WGA beads (150 μg/well) is added, sealed, and mixed on a plate shaker for 1 minute. Plates are read with a MicroBeta® scintillation counter after 12 hours of settling time at room temperature.
(§1) The IC₅₀ concentration is converted to Ki using the Cheng-Prusoff equation.

[6] = target: T4, human glucagon-like peptide 1 receptor; experiment: competition of I-125 GLP-1, SPA, hGLP-1R 293HEK membranes; Ki by Cheng-Prusoff
Protocol: The hGLP-1R cDNA is subcloned into the expression plasmid phD (Trans-activated expression of fully gamma-carboxylated recombinant human protein C, an antithrombotic factor. Grinnell, B. W., Berg, D. T., Walls, J. and Yan, S. B. Bio/Technology 5: 1189-1192, 1987). This plasmid DNA is transfected into 293HEK cells and selected with 200 μg/mL Hygromycin.
The binding buffer contains 25 mM HEPES, pH 7.4, 2.5 mM CaCl₂, 1 mM MgCl₂, 0.1% fatty acid free BSA, 0.003% Tween20, and Roche Complete™ Inhibitors without EDTA. […] The peptide analog is dissolved in 100% DMSO and serially diluted in 100% DMSO. Next, 10 μL diluted compounds of the present invention or 100% DMSO are transferred into Corning® 3632 clear bottom assay plates containing 40 μL assay binding buffer or cold glucagon (NSB at 1 μM final). […] Plates are read with a PerkinElmer Life and Analytical Sciences Trilux MicroBeta® scintillation counter after 12 hours of settling time at room temperature.
as §1

human glucagon receptor = human glucagon receptor (human, UniProt P47871 26-477); experiment: cell-based or functional assay
[7] = target: T4, human glucagon-like peptide 1 receptor; experiment: ratio of Ki on hGLP-1R to Ki on hGIP-R (reference), radioligand competition
[8] = target: T4, human glucagon-like peptide 1 receptor; experiment: Ki ratio hGLP-1R/hGIP-R normalized by 4.53 (native GLP-1/GIP), radioligand competition

Sequence of human glucagon receptor (P47871 26-477): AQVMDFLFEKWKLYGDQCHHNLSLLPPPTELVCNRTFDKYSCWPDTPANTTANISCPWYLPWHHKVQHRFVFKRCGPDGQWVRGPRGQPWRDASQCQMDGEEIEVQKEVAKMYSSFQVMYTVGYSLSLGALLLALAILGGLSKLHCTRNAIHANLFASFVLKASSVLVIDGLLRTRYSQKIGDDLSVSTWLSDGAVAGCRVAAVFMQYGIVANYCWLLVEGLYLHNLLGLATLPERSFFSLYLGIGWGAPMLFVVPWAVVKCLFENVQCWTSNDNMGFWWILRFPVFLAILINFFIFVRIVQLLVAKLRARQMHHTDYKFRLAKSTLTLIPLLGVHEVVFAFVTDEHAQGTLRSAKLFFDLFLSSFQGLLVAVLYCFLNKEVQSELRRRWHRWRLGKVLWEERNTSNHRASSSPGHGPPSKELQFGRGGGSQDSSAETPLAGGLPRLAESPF

Molecule	Emax, % (intracellular cAMP) [1] [%]	Rel EC50 (intracellular cAMP) (human GLP-2 receptor) [nM]	EC50 (intracellular cAMP) [2] [nM]	Emax, % (intracellular cAMP) [2] [%]	EC50 (intracellular cAMP) [3] [nM]	Emax, % (intracellular cAMP) [3] [%]	Average EC50, cAMP in GLUTag cells [4] [nM]	Ki [5] [nM]	Ki [6] [nM]	EC50 (intracellular cAMP) (human glucagon receptor) [nM]	Absolute ratio of hGLP-1R/hGIP-R [7]	Molar ratio of hGLP-1R/hGIP-R [8]
human GIP(1-42)NH2 (from UniProt P09681 52-93) (ligand)	100	–	–	–	–	–	–	–	–	–	–	–
C18-acylated human GLP-2 control (from UniProt P01275 146-178) (peptide)	–	1.86	–	–	–	–	–	–	–	–	–	–
YXEGTFTSDYSIXLDKIAQKAFVQWLIAGGPSSGAPPPS (Aib at positions 2 and 13; K at position 20 conjugated at the epsilon-amino group with ([2-(2-Amino-ethoxy)-ethoxy]-acetyl)2-(γGlu)1-CO-(CH2)16-CO2H; C-terminal primary amide, Synthetic acylated peptide, trifluoroacetate salt) [Example 3]	–	199	3.15	106	33.9	96.2	1610	26.7	427	–	–	–
YXEGTFTSDYSIXLDKIAQKAXVQWLIAGGPSSGAPPPS (Aib at positions 2 and 13; K at position 20 conjugated at the epsilon-amino group with ([2-(2-Amino-ethoxy)-ethoxy]-acetyl)2-(γGlu)2-CO-(CH2)18-CO2H; 1-Nal at position 22; C-terminal primary amide, Synthetic acylated peptide, trifluoroacetate salt) [Example 2]	–	1610	17.5	94.7	75.7	98.2	2920	63.9	344	> 1000	5.4	1.19
YXEGTFTSDYSIXLDKIAQKAXVQWLIAGGPSSGAPPPS (Aib at positions 2 and 13; K at position 20 conjugated at the epsilon-amino group with ([2-(2-Amino-ethoxy)-ethoxy]-acetyl)2-(γGlu)2-CO-(CH2)16-CO2H; 1-Nal at position 22; C-terminal primary amide, Synthetic acylated peptide, trifluoroacetate salt) [Example 7]	–	1800	8.07	106	35.5	97.2	2750	46.1	352	> 1000	7.6	1.68
YXEGTFTSDYSIXLDKIAQKAFVQWLIAGGPSSGAPPPS (Aib at positions 2 and 13; K at position 20 conjugated at the epsilon-amino group with ([2-(2-Amino-ethoxy)-ethoxy]-acetyl)2-(γGlu)1-CO-(CH2)18-CO2H; C-terminal primary amide) [Example 1]	–	–	–	97.9	–	85.2	1490	–	–	–	–	–
YXEGTFTSDYSIXLDKIAQKAFVQWLIAGGPSSGAPPPS (Aib at positions 2 and 13; K at position 20 conjugated at the epsilon-amino group with ([2-(2-Amino-ethoxy)-ethoxy]-acetyl)2-(γGlu)2-CO-(CH2)18-CO2H; C-terminal primary amide, Synthetic acylated peptide, trifluoroacetate salt) [Example 5]	–	–	8.76	105	–	105	–	17.8	158	–	–	–
YXEGTFTSDYSIXLDKIAQKAXVQWLIAGGPSSGAPPPS (Aib at positions 2 and 13; K at position 20 conjugated at the epsilon-amino group with ([2-(2-Amino-ethoxy)-ethoxy]-acetyl)2-(γGlu)1-CO-(CH2)16-CO2H; 1-Nal at position 22; C-terminal primary amide, Synthetic acylated peptide, trifluoroacetate salt) [Example 6]	–	–	4.4	106	28.4	104	–	44.2	365	> 1000	8.3	1.83
YXEGTFTSDYSIXLDKIAQKAFVQWLIAGGPSSGAPPPS (Aib at positions 2 and 13; K at position 20 conjugated at the epsilon-amino group with ([2-(2-Amino-ethoxy)-ethoxy]-acetyl)2-(γGlu)2-CO-(CH2)16-CO2H; C-terminal primary amide, Synthetic acylated peptide, trifluoroacetate salt) [Example 4]	–	405	3.76	–	–	100	2190	40.7	714	–	–	–
YXEGTFTSDYSIXLDKIAQKAXVQWLIAGGPSSGAPPPS (Aib at positions 2 and 13; K at position 20 conjugated at the epsilon-amino group with ([2-(2-Amino-ethoxy)-ethoxy]-acetyl)2-(γGlu)1-CO-(CH2)18-CO2H; 1-Nal at position 22; C-terminal primary amide, Synthetic acylated peptide, trifluoroacetate salt) [Example 8]	–	–	21.1	108	57.9	88.4	–	67.5	307	> 1000	4.5	0.99
